Numbered stars: 1 amine (or outer) side, 2 acyl side, 3 side chain; on linkers, the order of the positions; unused ones are H or OH. Square brackets hold non-standard residues; d marks the D form. Side chains are listed from the residue outwards. Ends that are not written are not given here. * marks the point of attachment. C18 diacid = O=C(O)CCCCCCCCCCCCCCCCC(=O)*; γGlu = O=C(O)[C@H](CCC(=O)[*:2])N[*:1]; AEEA = NCCOCCOCC(=O)O; Aib = CC(C)(N)C(=O)O
What was measured:
human GLP-1 receptor [1] = biological target: T1, human GLP-1 receptor (human, UniProt P43220 24-463); experiment: cell-based or functional assay
human glucagon receptor = human glucagon receptor (human, UniProt P47871 26-477); experiment: cell-based or functional assay
Sequence of human glucagon receptor (P47871 26-477): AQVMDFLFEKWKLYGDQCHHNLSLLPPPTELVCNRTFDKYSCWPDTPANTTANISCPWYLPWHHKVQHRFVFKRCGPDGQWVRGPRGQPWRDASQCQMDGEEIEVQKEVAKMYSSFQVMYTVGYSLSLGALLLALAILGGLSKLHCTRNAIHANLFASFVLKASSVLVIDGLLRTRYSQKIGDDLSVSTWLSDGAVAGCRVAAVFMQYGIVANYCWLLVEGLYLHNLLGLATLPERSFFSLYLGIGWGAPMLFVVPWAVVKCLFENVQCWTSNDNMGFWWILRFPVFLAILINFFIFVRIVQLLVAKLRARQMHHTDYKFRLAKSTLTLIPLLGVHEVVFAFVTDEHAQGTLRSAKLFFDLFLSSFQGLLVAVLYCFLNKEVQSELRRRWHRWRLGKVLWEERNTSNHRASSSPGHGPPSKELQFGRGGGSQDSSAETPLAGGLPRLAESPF

human GLP-1 receptor [2] = biological target: T1, human GLP-1 receptor; experiment: displacement of 125I-GLP-1(7-36)NH2, membranes with human GLP-1R, SPA
Description: The receptor binding of each compound to the human GLP-1 receptor was measured in a displacement binding assay. […] Each derivative was added in a series of concentrations to isolated membranes containing the human GLP-1 receptor and displacement of the labelled ligand was monitored. The receptor binding was reported as the concentration at which half of the labelled ligand was displaced from the receptor, the IC₅₀ value.

Binder	EC50 GLP-1R, CRE luciferase reporter gene assay in BHK cells (human GLP-1 receptor [1]) [nM]	EC50 GlucR, CRE luciferase reporter gene assay in BHK cells (human glucagon receptor) [nM]	IC50 (human GLP-1 receptor [2]) [nM]
H[Aib]QGTFTSDLSKYLDSRRARDFVK([γGlu-γGlu-AEEA-AEEA-γGlu-C18 diacid])WLLST-NH2 (N-terminus assumed; SMILES CC(C)C[C@H](NC(=O)[C@H](Cc1ccc(O)cc1)NC(=O)[C@H](CCCCN)NC(=O)[C@H](CO)NC(=O)[C@H](CC(C)C)NC(=O)[C@H](CC(=O)O)NC(=O)[C@H](CO)NC(=O)[C@@H](NC(=O)[C@H](Cc1ccccc1)NC(=O)[C@@H](NC(=O)CNC(=O)[C@H](CCC(N)=O)NC(=O)C(C)(C)NC(=O)[C@@H](N)Cc1c[nH]cn1)[C@@H](C)O)[C@@H](C)O)C(=O)N[C@@H](CC(=O)O)C(=O)N[C@@H](CO)C(=O)N[C@@H](CCCNC(=N)N)C(=O)N[C@@H](CCCNC(=N)N)C(=O)N[C@@H](C)C(=O)N[C@@H](CCCNC(=N)N)C(=O)N[C@@H](CC(=O)O)C(=O)N[C@@H](Cc1ccccc1)C(=O)N[C@H](C(=O)N[C@@H](CCCCNC(=O)CC[C@H](NC(=O)CC[C@H](NC(=O)COCCOCCNC(=O)COCCOCCNC(=O)CC[C@H](NC(=O)CCCCCCCCCCCCCCCCC(=O)O)C(=O)O)C(=O)O)C(=O)O)C(=O)N[C@@H](Cc1c[nH]c2ccccc12)C(=O)N[C@@H](CC(C)C)C(=O)N[C@@H](CC(C)C)C(=O)N[C@@H](CO)C(=O)N[C@H](C(N)=O)[C@@H](C)O)C(C)C)	0.006	0.06	
H[Aib]QGTFTSDLSKYLDSRRARDFVQWLLK([γGlu-γGlu-AEEA-AEEA-γGlu-C18 diacid])T-NH2 (N-terminus assumed; SMILES CC(C)C[C@H](NC(=O)[C@H](Cc1ccc(O)cc1)NC(=O)[C@H](CCCCN)NC(=O)[C@H](CO)NC(=O)[C@H](CC(C)C)NC(=O)[C@H](CC(=O)O)NC(=O)[C@H](CO)NC(=O)[C@@H](NC(=O)[C@H](Cc1ccccc1)NC(=O)[C@@H](NC(=O)CNC(=O)[C@H](CCC(N)=O)NC(=O)C(C)(C)NC(=O)[C@@H](N)Cc1c[nH]cn1)[C@@H](C)O)[C@@H](C)O)C(=O)N[C@@H](CC(=O)O)C(=O)N[C@@H](CO)C(=O)N[C@@H](CCCNC(=N)N)C(=O)N[C@@H](CCCNC(=N)N)C(=O)N[C@@H](C)C(=O)N[C@@H](CCCNC(=N)N)C(=O)N[C@@H](CC(=O)O)C(=O)N[C@@H](Cc1ccccc1)C(=O)N[C@H](C(=O)N[C@@H](CCC(N)=O)C(=O)N[C@@H](Cc1c[nH]c2ccccc12)C(=O)N[C@@H](CC(C)C)C(=O)N[C@@H](CC(C)C)C(=O)N[C@@H](CCCCNC(=O)CC[C@H](NC(=O)CC[C@H](NC(=O)COCCOCCNC(=O)COCCOCCNC(=O)CC[C@H](NC(=O)CCCCCCCCCCCCCCCCC(=O)O)C(=O)O)C(=O)O)C(=O)O)C(=O)N[C@H](C(N)=O)[C@@H](C)O)C(C)C)	0.004	0.016	
H[Aib]HGTFTSDLSKYLESRRAREFVQWLLK([γGlu-AEEA-AEEA-γGlu-γGlu-C18 diacid])T-NH2 (N-terminus assumed; SMILES CC(C)C[C@H](NC(=O)[C@H](Cc1ccc(O)cc1)NC(=O)[C@H](CCCCN)NC(=O)[C@H](CO)NC(=O)[C@H](CC(C)C)NC(=O)[C@H](CC(=O)O)NC(=O)[C@H](CO)NC(=O)[C@@H](NC(=O)[C@H](Cc1ccccc1)NC(=O)[C@@H](NC(=O)CNC(=O)[C@H](Cc1c[nH]cn1)NC(=O)C(C)(C)NC(=O)[C@@H](N)Cc1c[nH]cn1)[C@@H](C)O)[C@@H](C)O)C(=O)N[C@@H](CCC(=O)O)C(=O)N[C@@H](CO)C(=O)N[C@@H](CCCNC(=N)N)C(=O)N[C@@H](CCCNC(=N)N)C(=O)N[C@@H](C)C(=O)N[C@@H](CCCNC(=N)N)C(=O)N[C@@H](CCC(=O)O)C(=O)N[C@@H](Cc1ccccc1)C(=O)N[C@H](C(=O)N[C@@H](CCC(N)=O)C(=O)N[C@@H](Cc1c[nH]c2ccccc12)C(=O)N[C@@H](CC(C)C)C(=O)N[C@@H](CC(C)C)C(=O)N[C@@H](CCCCNC(=O)CC[C@H](NC(=O)COCCOCCNC(=O)COCCOCCNC(=O)CC[C@H](NC(=O)CC[C@H](NC(=O)CCCCCCCCCCCCCCCCC(=O)O)C(=O)O)C(=O)O)C(=O)O)C(=O)N[C@H](C(N)=O)[C@@H](C)O)C(C)C)	0.0357	0.0048	1.4
H[Aib]QGTFTSDLSKYLDLRRAQDFVQWLLK([γGlu-γGlu-Ser-Glu-Ser-γGlu-γGlu-C18 diacid])T-NH2	0.011	0.007	1.9
H[Aib]QGTFTSDLSKYLESKRAREFVQWLLK([γGlu-γGlu-Ser-Glu-Ser-γGlu-γGlu-C18 diacid])T-NH2	0.004		0.2
H[Aib]HGTFTSDLSKYLESRRAREFVQWLLK([γGlu-γGlu-AEEA-AEEA-γGlu-C18 diacid])T-NH2 (N-terminus assumed; SMILES CC(C)C[C@H](NC(=O)[C@H](Cc1ccc(O)cc1)NC(=O)[C@H](CCCCN)NC(=O)[C@H](CO)NC(=O)[C@H](CC(C)C)NC(=O)[C@H](CC(=O)O)NC(=O)[C@H](CO)NC(=O)[C@@H](NC(=O)[C@H](Cc1ccccc1)NC(=O)[C@@H](NC(=O)CNC(=O)[C@H](Cc1c[nH]cn1)NC(=O)C(C)(C)NC(=O)[C@@H](N)Cc1c[nH]cn1)[C@@H](C)O)[C@@H](C)O)C(=O)N[C@@H](CCC(=O)O)C(=O)N[C@@H](CO)C(=O)N[C@@H](CCCNC(=N)N)C(=O)N[C@@H](CCCNC(=N)N)C(=O)N[C@@H](C)C(=O)N[C@@H](CCCNC(=N)N)C(=O)N[C@@H](CCC(=O)O)C(=O)N[C@@H](Cc1ccccc1)C(=O)N[C@H](C(=O)N[C@@H](CCC(N)=O)C(=O)N[C@@H](Cc1c[nH]c2ccccc12)C(=O)N[C@@H](CC(C)C)C(=O)N[C@@H](CC(C)C)C(=O)N[C@@H](CCCCNC(=O)CC[C@H](NC(=O)CC[C@H](NC(=O)COCCOCCNC(=O)COCCOCCNC(=O)CC[C@H](NC(=O)CCCCCCCCCCCCCCCCC(=O)O)C(=O)O)C(=O)O)C(=O)O)C(=O)N[C@H](C(N)=O)[C@@H](C)O)C(C)C)	0.0146	0.0036	0.6

— US20150374794A1 (Novo Nordisk, published 2015)
